# Data taken from US20200024330A1.
# Legend:
# Experiment in all cases: cell-based or functional assay
# [1] = biological target: HIV-1 JR-CSF Env E466A (HIV-1 (isolate JR-CSF)) (UniProt P20871)
# [2] = biological target: HIV-1 JRCSF envelope glycoprotein (Env) on pseudovirus (HIV-1) (UniProt P20871)
# [3] = biological target: HIV-1 APV_13 Env (pseudovirus) (HIV-1)
# [4] = biological target: HIV-1 Env of isolate MG RM-D-005 (subtype D) (HIV-1)
# [5] = biological target: HIV-1 Env of isolate MGRM-F1-017 (HIV-1)
# [6] = biological target: aMLV envelope on pseudovirus (negative control virus)
# [7] = biological target: HIV-1 Env of isolate 92UG001 (subtype D) (HIV-1)
# [8] = biological target: HIV-1 Env of isolate MGRM-F1-012 (subtype F) (HIV-1)
# [9] = biological target: HIV-1 Env of isolate MG RM-D-013 (subtype D) (HIV-1)
# [10] = biological target: HIV-1 MGRM-Chronic-B-023 Env (pseudovirus) (HIV-1)
# [11] = biological target: HIV-1 94UG103 envelope glycoprotein (Env) on pseudovirus (HIV-1)
# [12] = biological target: HIV-1 Env of isolate 92UG046 (subtype D) (HIV-1)
# [13] = biological target: HIV-1 JR-CSF Env D477A (HIV-1 (isolate JR-CSF)) (UniProt P20871)
# [14] = biological target: HIV-1 Env of isolate MGRM-G-028 (HIV-1)
# [15] = biological target: HIV-1 MGRM-Chronic-B-024 Env (pseudovirus) (HIV-1)
# [16] = biological target: HIV-1 JR-CSF Env D167A (HIV-1 (isolate JR-CSF)) (UniProt P20871)
# [17] = biological target: HIV-1 6535.3 Env (pseudovirus) (HIV-1)
# [18] = biological target: HIV-1 93IN905 Env (pseudovirus) (HIV-1)
# [19] = biological target: HIV-1 93TH305 Env (pseudovirus) (HIV-1)
# [20] = biological target: HIV-1 Env of isolate MGRM-C-020 (pseudovirus) (HIV-1 isolate MGRM-C-020, subtype C)
# [21] = biological target: HIV-1 Env of isolate MGRM-F1-008 (subtype F), on pseudovirus (HIV-1)
# [22] = biological target: HIV-1 Env of isolate MGRM-AG-005 (CRF_AG), on pseudovirus (HIV-1)
# [23] = biological target: HIV-1 Env of isolate MGRM-C-020 (HIV-1)
# [24] = biological target: HIV-1 Env of isolate MGRM-C-014 (HIV-1)
# [25] = biological target: HIV-1 Env of isolate 92UG037 (HIV-1)
# [26] = biological target: HIV-1 Env of isolate 94UG103 (HIV-1)
# [27] = biological target: HIV-1 Env of isolate 92UG046 (HIV-1)
# [28] = biological target: HIV-1 Env of isolate MGRM-D-026 (subtype D), on pseudovirus (HIV-1)
# [29] = biological target: HIV-1 Env of isolate 93IN905 (HIV-1)
# [30] = biological target: HIV-1 Env of isolate MGRM-AE-002 (CRF01_AE), on pseudovirus (HIV-1)
# [31] = biological target: HIV-1 Env of isolate MGRM-AE-004 (CRF01_AE), on pseudovirus (HIV-1)
# [32] = biological target: HIV-1 Env of isolate MGRM-D-014 (HIV-1)
# [33] = biological target: HIV-1 Env of isolate MGRM-Chronic-B-004 (HIV-1)
# 5345_I01 (PGT-137) (antibody), sequence (VH): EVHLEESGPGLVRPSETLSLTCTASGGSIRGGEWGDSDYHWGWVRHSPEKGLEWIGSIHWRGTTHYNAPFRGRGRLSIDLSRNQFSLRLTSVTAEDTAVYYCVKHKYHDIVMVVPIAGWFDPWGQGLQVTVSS
# 5345_I01 (PGT-137) (antibody), sequence (VL): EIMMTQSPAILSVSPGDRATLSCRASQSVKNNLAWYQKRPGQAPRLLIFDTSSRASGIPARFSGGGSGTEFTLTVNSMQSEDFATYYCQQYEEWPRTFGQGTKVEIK
Substance,Fold IC50 increase relative to wild-type [1] [fold],"IC50 (ug/ml), neutralizing activity [2] [µg/mL]","IC50, pseudovirus neutralization [3] [µg/mL]","IC50 (µg/mL), pseudovirus neutralization [4] [µg/mL]",IC50 [5] [µg/mL],"IC50 (ug/ml), neutralizing activity [6] [µg/mL]","IC50 (µg/mL), pseudovirus neutralization [7] [µg/mL]","IC50 (µg/mL), pseudovirus neutralization [8] [µg/mL]","IC50 (µg/mL), pseudovirus neutralization [9] [µg/mL]","IC50, pseudovirus neutralization [10] [µg/mL]","IC50 (ug/ml), neutralizing activity [11] [µg/mL]","IC50 (µg/mL), pseudovirus neutralization [12] [µg/mL]",Fold IC50 increase relative to wild-type [13] [fold],"IC50, pseudovirus neutralization [14] [µg/mL]","IC50, pseudovirus neutralization [15] [µg/mL]",Fold IC50 increase relative to wild-type [16] [fold],"IC50, pseudovirus neutralization [17] [µg/mL]","IC50, pseudovirus neutralization [18] [ng/mL]","IC50, pseudovirus neutralization [19] [ng/mL]",IC50 (µg/mL) neutralization [20] [µg/mL],also measured
5141_B17 (PGT-126) (antibody),1.4,0.0061,0.012,0.792,> 50,> 10,> 50,0.3,> 50,> 50,0.0091,> 50,1.1,0.012,> 50,1.6,0.022,15,13,> 50,IC50 [18]: 0.0194 µg/mL; IC80 [18]: 0.0676 µg/mL; IC90 [18]: 0.14 µg/mL; IC95 [18]: 0.275 µg/mL
5123_A06 (PGT-125) (antibody),1.6,0.006,0.007,> 50,> 50,> 10,> 50,> 50,> 50,> 50,0.0124,> 50,3.4,0.012,> 50,1.7,0.01,9,8,> 50,neutralization IC50 [2]: 6 ng/mL; neutralization IC80 [2]: 0.0196 µg/mL; neutralization IC90 [2]: 0.0392 µg/mL; neutralization IC95 [2]: 0.0741 µg/mL; neutralization IC50 [11]: 0.0124 µg/mL; neutralization IC80 [11]: 0.0373 µg/mL; neutralization IC90 [11]: 0.071 µg/mL; neutralization IC95 [11]: 0.129 µg/mL
5345_I01 (PGT-137) (antibody),,,,,,,,,,,,,,> 50,,,,,,,"IC50, pseudovirus neutralization [21]: > 50 µg/mL; IC50, single-round pseudovirus neutralization [22]: > 50 µg/mL; IC50 [23]: > 50 µg/mL; IC50 [24]: > 50 µg/mL; neutralization IC50 [25]: > 50000 ng/mL; neutralization IC50 [26]: > 50 µg/mL; IC50 [27]: > 50 µg/mL; IC50, pseudovirus neutralization [28]: > 50 µg/mL; IC50 [29]: 0.042 µg/mL; IC50, single-round pseudovirus neutralization [30]: > 50 µg/mL; IC50, single-round pseudovirus neutralization [31]: > 50 µg/mL; IC50 [32]: > 50 µg/mL; IC50 [33]: > 50000 ng/mL"
5114_A19 (PGT-128) (antibody),0.6,,,,,,,,,,,,0.7,0.008,,0.3,,,,,"IC50, pseudovirus neutralization [21]: > 50 µg/mL; IC50, single-round pseudovirus neutralization [22]: 0.037 µg/mL; IC50 [23]: 5.85 µg/mL; IC50 [24]: > 50 µg/mL; neutralization IC50 [25]: 6 ng/mL; neutralization IC50 [26]: 0.011 µg/mL; IC50 [27]: > 50 µg/mL; IC50, pseudovirus neutralization [28]: > 50 µg/mL; IC50 [29]: 0.009 µg/mL; IC50, single-round pseudovirus neutralization [30]: 0.522 µg/mL; IC50, single-round pseudovirus neutralization [31]: > 50 µg/mL; IC50 [32]: 0.013 µg/mL; IC50 [33]: 9 ng/mL"
4858_P08 (PGT-123) (antibody),0.6,0.0423,0.138,> 50,> 50,> 10,> 50,22.2,> 50,0.055,0.846,> 50,2.3,0.008,> 50,1.2,0.004,4,8,> 50,"IC50, pseudovirus neutralization [2]: 0.0423 µg/mL; IC80, pseudovirus neutralization [2]: 0.143 µg/mL; IC90 (pseudovirus neutralization) [2]: 0.289 µg/mL; IC95, pseudovirus neutralization [2]: 0.547 µg/mL; IC50, pseudovirus neutralization [11]: 0.846 µg/mL; IC80, pseudovirus neutralization [11]: 3.29 µg/mL; IC90 (pseudovirus neutralization) [11]: 8.56 µg/mL; IC95, pseudovirus neutralization [11]: > 10 µg/mL"
